“Also recorded” adds a separate entry of the source. Numbered stars: 1 amine (or outer) side, 2 acyl side, 3 side chain; on linkers, the order of the positions; unused ones are H or OH. Square brackets hold non-standard residues; d marks the D form. Side chains are listed from the residue outwards. Peptide text beside a SMILES is read from it. * marks the point of attachment. C20 diacid = O=C(O)CCCCCCCCCCCCCCCCCCC(=O)*; γGlu = O=C(O)[C@H](CCC(=O)[*:2])N[*:1]; AEEA = NCCOCCOCC(=O)O; Aib = CC(C)(N)C(=O)O

A short description of series [1]: stability of polypeptide in serum (GIP activity read-out with CHOK1-GIPR cells). Format: in vitro ADME, cynomolgus monkey. The conditions noted are these: for Activity ratio (%, Relative to the sample at 0 h): 100 μg/ml in cynomolgus monkey serum, GIP activity. Here is the method:
Polypeptide 1 (SEQ ID NO. 1), polypeptide 3 (SEQ ID NO. 3) and control LY3437943 were diluted to 100 μg/ml with cynomolgus monkey serum, divided into 3 pieces with 200 μl/piece, respectively. One sample was placed in a −80° C. refrigerator as a zero reference, and the other two samples were placed in a 37° C. incubator and moved into a −80° C. refrigerator after 24 hours and 72 hours respectively. […] The activity changes of different samples after being placed for different periods of time were compared.

Another series has as its target T1, GIP receptor (human) (UniProt P48546).
T1 sequence (looked up): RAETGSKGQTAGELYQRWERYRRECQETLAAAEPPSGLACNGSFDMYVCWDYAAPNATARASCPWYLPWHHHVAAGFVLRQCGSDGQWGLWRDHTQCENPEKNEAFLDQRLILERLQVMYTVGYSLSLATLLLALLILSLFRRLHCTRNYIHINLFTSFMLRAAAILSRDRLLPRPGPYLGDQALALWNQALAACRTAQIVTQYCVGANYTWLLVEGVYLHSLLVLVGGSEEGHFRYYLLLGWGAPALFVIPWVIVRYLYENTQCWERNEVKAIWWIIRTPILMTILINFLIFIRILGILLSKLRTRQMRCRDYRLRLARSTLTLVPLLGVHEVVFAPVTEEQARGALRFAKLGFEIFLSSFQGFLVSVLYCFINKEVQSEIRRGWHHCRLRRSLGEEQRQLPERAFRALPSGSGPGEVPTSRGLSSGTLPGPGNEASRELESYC
Description: cell-based or functional assay.

For series [2], the target named is human GLP-1 receptor (human) (UniProt P43220). The experiment in a line: cell-based or functional assay.
A further series concerns the target GCG receptor (UniProt P47871). Description: cell-based or functional assay.

Regarding `CC[C@H](C)[C@H](NC(=O)[C@H](CCCCNC(=O)COCCOCCNC(=O)CC[C@H](NC(=O)CCCCCCCCCCCCCCCCCCC(=O)O)C(=O)O)NC(=O)[C@H](CC(=O)O)NC(=O)[C@H](CC(C)C)NC(=O)[C@H](CC(C)C)NC(=O)[C@@H](NC(=O)[C@H](CO)NC(=O)[C@H](Cc1ccc(O)cc1)NC(=O)[C@H](CC(=O)O)NC(=O)[C@H](CO)NC(=O)[C@@H](NC(=O)[C@H](Cc1ccccc1)NC(=O)[C@@H](NC(=O)CNC(=O)[C@H](CCC(N)=O)NC(=O)C(C)(C)NC(=O)[C@@H](N)Cc1c[nH]cn1)[C@@H](C)O)[C@@H](C)O)[C@@H](C)CC)C(=O)N[C@@H](C)C(=O)N[C@@H](C)C(=O)N[C@@H](CCC(N)=O)C(=O)N[C@@H](C)C(=O)N[C@@H](Cc1ccccc1)C(=O)N[C@H](C(=O)N[C@@H](CCC(=O)O)C(=O)N[C@@H](Cc1c[nH]c2ccccc12)C(=O)N[C@@H](CC(C)C)C(=O)N[C@H](C(=O)N[C@@H](C)C(=O)NCC(=O)NCC(=O)N1CCC[C@H]1C(=O)N[C@@H](CO)C(=O)N[C@@H](CO)C(=O)NCC(=O)N[C@@H](C)C(=O)N1CCC[C@H]1C(=O)N1CCC[C@H]1C(=O)N1CCC[C@H]1C(=O)N[C@@H](CO)C(N)=O)[C@@H](C)CC)[C@@H](C)CC` [Polypeptide 1] (H-H[Aib]QGTFTSDYSILLDK([AEEA-γGlu-C20 diacid])IAAQAFIEWLIAGGPSSGAPPPS-NH2; N-terminus and C-terminus assumed), the “stability in serum (in words)” value in series [1] (cynomolgus monkey serum, 37° C.) is listed as “higher than that of polypeptide 3; also recorded: significantly improve polypeptide stability”. For the same compound, the figures for the “Activity ratio (%, Relative to the sample at 0 h)” value in series [1] (incubation time at 37° C. 0 h (zero reference)) and in series [1] (incubation time at 37° C. 72 h) were 100% and 67.13%, respectively.

In the series with GIP receptor (human), “GIP (from UniProt P09681 52-93) (ligand)” registered an EC50 (nmol/L), reporter gene in CHO-K1 cells of 0.059 nmol/L.

For “GLP-1 (from UniProt P01275 92-128) (ligand)”, the EC50 (nmol/L), CRE-luciferase reporter in CHO-K1 cells in series [2] amounted to 1.95 nmol/L.

Turning to LY3437943 (peptide), in series [2], the Results of activity in human serum albumin system (GLP-1R) came out at 540. Moreover, in the series with GIP receptor (human), the Results of activity in human serum albumin system (GIPR) turned out to be 3.29. The Results of activity in human serum albumin system (GCGR) in the series with GCG receptor is 26.

For the origin of these results see patent US20260055155A1, “INCRETIN ANALOG AND USE THEREOF” (SHANGHAI MINWEI BIOTECHNOLOGY CO., LTD, priority 2023, published 2026).
